The values below come from US12416034B2, “Recombinant production of steviol glycosides” (EVOLVA SA, priority 2011, dated 2025).

Where only a bound is given, the exact number is not on record here.

One data set is described as follows: RebD solubility in water. The format is physicochemical. The settings on record: 30° C. Here is the method: The solubility of RebD was assessed by making several different solutions of RebD in water were made and incubated at 30° C. for 72 hours. […] One with skill in the art will recognize that the solubility can be influenced by any number of conditions such as pH, temperature, or different matrices.

The nature of data set [1]: Screening by LC-MS of E. coli lysates, rubusoside as substrate. It counts as biochemical. Here is the method:
(§1) To analyze the approximately 1600 mutant clones of UGT91D2e, the E. coli transformants were grown overnight at 30° C. in 1 ml of NZCYM containing ampicillin (100 mg/1) and chloramphenicol (33 mg/1), in 96-well format. The next day, 150 μl of each culture was inoculated into 3 ml NZCYM containing ampicillin (100 mg/1), chloramphenicol (33 mg/1), arabinose 3 mM, IPTG 0.1 mM and ethanol 2% v/v, in 24-well format, and incubated at 20° C. and 200 rpm for ˜20 h. The following day, cells were spun down and pellets were resuspended in 100 μl of lysis buffer containing 10 mM Tris-HCl pH 8, 5 mM MgCl2, 1 mM CaCl2) and complete mini protease inhibitor EDTA-free (3 tablets/100 ml) (Hoffmann-La Roche, Basel, Switzerland) and frozen −80° C. for at least 15 minutes to promote cell lysis. […] In each case, the resulting compounds, stevioside or rebaudioside D (rebD), were measured by LC-MS. Results were analyzed in comparison with the stevioside or rebD produced by the lysates expressing the corresponding controls (91D2e, 91D2e-b, EUGT11 and the empty plasmid). […]
(§2) Half of the 1600 clones and the corresponding controls were assayed for their capacity to glycosylate rubusoside and rebaudiosideA. Stevioside and RebD were quantified by LC-MS. […]

The nature of data set [2]: Screening by LC-MS of E. coli lysates, rebaudioside A as substrate. The format is biochemical. The settings on record: RebA substrate. The method, then:
as §1, §2

A short description of data set [3]: Denaturation temperature by differential scanning calorimetry (DSC). The format is physicochemical. The conditions noted are these: 6HIS-purified enzymes, 91D2e-b GST-purified. The method, then:
To assess the thermal stability of EUGT11 and to compare it with the other UGTs in the steviol glycosylation pathway, denaturation temperatures of the proteins were determined using differential scanning calorimetry (DSC). Use of DSC thermograms to estimate denaturation temperatures, TD, is described, for example, by E. Freire in Methods in Molecular Biology 1995, Vol. 40 191-218. DSC was performed (using 6HIS-purified EUGT11, yielding an apparent TD of 39° C.; while when GST-purified 91D2e-b was used, the measured TD was 79° C. For reference, the measured TD when using 6HIS-purified UGT74G1, UGT76G1 and UGT85C2 was 86° C. in all cases. One of skill in the art will recognize that enzyme immobilization or addition of thermal protectants can be added to the reactions to improve stability of the protein. Non-limiting examples of thermal protectants include trehalose, glycerol, ammonium sulphate, betaine, trimethylamine oxide, and proteins.
In general terms: DSC measures the heat that a sample takes up or gives off during a temperature scan.

Data set [4] can be described thus: Enzyme kinetics with RebA as substrate. The format is biochemical. The conditions noted are these: Reb A. The method, then:
(§3) A series of experiments were performed to determine kinetic parameters of EUGT11 and 91D2e-b. For both enzymes, 100 μM RebA, 300 μM UDP-glucose, and 10 U/mL Alkaline Phosphatase (Fermentas/Thermo Fisher, Waltham, MA) were used in the reactions. For EUGT11, the reactions were performed at 37° C. using 100 mM Tris-HCl, pH 7, and 2% enzyme. For 91D2e-b, the reactions were performed at 30° C. using 20 mM Hepes-NaOH, pH 7.6, 20% (by volume) enzyme. The initial velocities (V0) were calculated in the linear range of a product versus time plot.
To first investigate the linearity intervals, initial time-courses were done for each enzyme. EUGT11 was assayed at 37° C. for 48 h at initial concentrations of 100 μM RebA and 300 μM UDP-glucose. UGT91D2e-b was assayed at 37° C. for 24 h at initial concentrations of 200 μM RebA and 600 μM UDP-glucose. Based on these range-finding studies, it was determined that the initial 10 minutes in the case of EUGT11, and the initial 20 minutes in UGT91D2e-b would be in the linear range with respect to product formation, and therefore initial velocities of each reaction were calculated in those intervals. In the case of EUGT11, RebA concentrations assayed were 30 μM, 50 μM, 100 μM, 200 μM, 300 μM and 500 μM. Concentration of UDP-glucose was always three times the concentration of RebA and incubation was performed at 37° C. By plotting the calculated V0 as a function of the substrate concentrations, Michaelis-Menten curves were generated. By plotting the reciprocal of V0 and the reciprocal of [S], a Lineweaver-Burk graphic was obtained, with y=339.85x+1.8644; R^2=0.9759.
(§4) Vmax and KM parameters were determined from the curve-fit Lineweaver-Burk data, calculated from the x- and y intercepts (x=0, y=1/Vmax) and (y=0, x=−1/KM). Additionally, the same parameters also were calculated by a non-linear least squares regression, using the SOLVER function in Excel. The results obtained with both methods for EUGT11 and RebA are presented in Table 12, along with all the kinetic parameters of this example. Kcat is calculated based on Vmax divided by the approximate amount of protein in the assay.
(§5) In the case of UGT91D2e-b, RebA concentrations assayed were 50 μM, 100 μM, 200 μM, 300 μM, 400 μM and 500 μM. Concentration of UDP-glucose was always three times the concentration of RebA and incubation was performed at 30° C., in the reaction conditions described above for UGT91D2e-b. Additionally, kinetic parameters of UGT91D2e-b towards UDP-glucose were determined. UGT91D2e-b was incubated with increasing amounts of UDP-glucose (30 μM, 50 μM, 100 μM, and 200 μM), maintaining an excess of RebA (1500 μM). incubation was performed at 30° C., in optimal conditions for UGT91D2e-b.

The nature of data set [5]: Enzyme kinetics with UDP-glucose as substrate. It counts as biochemical. Here is the method: as §3, §4
In order to investigate the influence of UDP-glucose concentration in the glycosylation reaction, as well as the affinity of EUGT11 for UDP-glucose, similar kinetics analysis were performed. EUGT11 was incubated with increasing amounts of UDP-glucose (20 μM, 50 μM, 100 μM, and 200 μM), maintaining an excess of RebA (500 μM).
as §5

Data set [6] in a line: Codon optimized UGT cell lysate assay, steviol as substrate. It counts as biochemical. The conditions noted are these: 0.25 mM steviol, 24 hours, 30° C. The method, then:
The wild-type, DNA 2.0, and GeneArt sequences were assayed for in vitro activity to compare reactivity on substrates in the steviol glycosides pathway. UGTs were inserted in high copy (2p) vectors and expressed from a strong constitutive promoter (GPD1) (vectors P423-GPD, P424-GPD, P425-GPD, and P426-GPD). The plasmids were transformed individually into the universal Watchmaker strain, EFSC301 (described in Example 3 of WO2011/153378) and assays were carried out using cell lysates prepared from equal amount of cells (8 OD units). For the enzymatic reactions, 6 μL of each cell lysate were incubated in a 30 μL reaction with 0.25 mM steviol (final concentration) to test UGT74G1 and UGT85C2 clones, and with 0.25 mM 13-SMG (13SMG) (final concentration) to test 76G1 and 91D2e UGTs. Assays were carried out for 24 hours at 30° C. Prior to LC-MS analysis, one volume of 100% DMSO was added to each reaction, samples were centrifuged at 16000 g, and the supernatants analysed.

Regarding `C=C1C[C@@]23CC[C@H]4[C@@](C)(CCC[C@@]4(C)C(=O)O[C@@H]4O[C@H](CO)[C@@H](O)[C@H](O)[C@H]4O[C@@H]4O[C@H](CO)[C@@H](O)[C@H](O)[C@H]4O)[C@@H]2CC[C@]1(O[C@@H]1O[C@H](CO)[C@@H](O)[C@H](O[C@@H]2O[C@H](CO)[C@@H](O)[C@H](O)[C@H]2O)[C@H]1O[C@@H]1O[C@H](CO)[C@@H](O)[C@H](O)[C@H]1O)C3` [RebD, Rebaudioside D], in “RebD solubility in water” (72 hours), the “concentration soluble in water initially” value is at most 1000 µM. Further, the “concentration stable for longer periods of time” value in the data set “RebD solubility in water” (water) is at most 500 µM.

B1: 91D2e-b: UGT91D2e double mutant C631A/T857C, amino acid modifications L211M and V286A (protein, listed as Stevia rebaudiana)
chain: MATSDSIVDDRKQLHVATFPWLAFGHILPYLQLSKLIAEKGHKVSFLSTTRNIQRLSSHISPLINVVQLTLPRVQELPEDAEATTDVHPEDIPYLKKASDGLQPEVTRFLEQHSPDWIIYDYTHYWLPSIAASLGISRAHFSVTTPWAIAYMGPSADAMINGSDGRTTVEDLTTPPKWFPFPTKVCWRKHDLARLVPYKAPGISDGYRMGMVLKGSDCLLSKCYHEFGTQWLPLLETLHQVPVVPVGLLPPEIPGDEKDETWVSIKKWLDGKQKGSVVYVALGSEALVSQTEVVELALGLELSGLPFVWAYRKPKGPAKSDSVELPDGFVERTRDRGLVWTSWAPQLRILSHESVCGFLTHCGSGSIVEGLMFGHPLIMLPIFGDQPLNARLLEDKQVGIEIPRNEEDGCLTKESVARSLRSVVVEKEGEIYKANARELSKIYNDTKVEKEYVSQFVDYLEKNARAVAIDHES
A word on the Km: it is the substrate concentration at which the rate is half of its maximum. A word on the Vmax: it is the top rate of the reaction or transport when substrate is in excess. B1: the “stevioside formed by lysates” value in data set [1] was above 10 µM. The “RebD formed by lysates” value in data set [2] is above 1.5 µM. For the same molecule, the “denaturation temperature TD” value in data set [3] stood at 79 °C. The Kcat stood at 0.00683 s⁻¹ in data set [4] (Lineweaver-Burk plot), 0.00533 s⁻¹ in data set [4] (Nonlinear Least Square Fit), 0.00317 s⁻¹ in data set [5] (Lineweaver-Burk plot) and 0.0033 s⁻¹ in data set [5] (Nonlinear Least Square Fit). The Km in data set [4] (Lineweaver-Burk plot) was 1580 µM; in data set [4] (Nonlinear Least Square Fit), 1150 µM; in data set [5] (Lineweaver-Burk plot), 41.9 µM; in data set [5] (Nonlinear Least Square Fit), 45.1 µM. In addition, the Vmax amounted to 0.44 µM/min in data set [4] (Lineweaver-Burk plot), 0.34 µM/min in data set [4] (Nonlinear Least Square Fit), 0.18 µM/min in data set [5] (Lineweaver-Burk plot) and 0.19 µM/min in data set [5] (Nonlinear Least Square Fit).

B2: UGT74G1: S. rebaudiana UGT, SEQ ID NO:1 (protein, listed as Stevia rebaudiana)
chain: MAEQQKIKKSPHVLLIPFPLQGHINPFIQFGKRLISKGVKTTLVTTIHTLNSTLNHSNTTTTSIEIQAISDGCDEGGFMSAGESYLETFKQVGSKSLADLIKKLQSEGTTIDAIIYDSMTEWVLDVAIEFGIDGGSFFTQACVVNSLYYHVHKGLISLPLGETVSVPGFPVLQRWETPLILQNHEQIQSPWSQMLFGQFANIDQARWVFTNSFYKLEEEVIEWTRKIWNLKVIGPTLPSMYLDKRLDDDKDNGFNLYKANHHECMNWLDDKPKESVVYVAFGSLVKHGPEQVEEITRALIDSDVNFLWVIKHKEEGKLPENLSEVIKTGKGLIVAWCKQLDVLAHESVGCFVTHCGFNSTLEAISLGVPVVAMPQFSDQTTNAKLLDEILGVGVRVKADENGIVRRGNLASCIKMIMEEERGVIIRKNAVKWKDLAKVAVHEGGSSDNDIVEFVSELIKA
Regarding B2, the “denaturation temperature TD” value in data set [3] was found to be 86 °C. Also, the “activity of GeneArt lysate as a percentage of the wild-type enzyme” value in data set [6] is listed as “equivalent activity”.
